Measurements as given in patent US10562935B2, “Stapled peptides and uses thereof” (London Health Sciences Centre Research Inc., priority 2015, dated 2020).
Bridges are numbered along the chain shown (N, C = ends).

Key:
[1] = test system: NF-κB; experiment: Inflammation assay: NF-κB inducible SEAP reporter in RAW-Blue macrophages stimulated with PAM3CSK4; type: cell-based, murine; details: for Inflammation (% Inhib.): % inhibition relative to positive control; for inhibition of inflammation (SEAP / NF-κB activity, in words): 10 ng/mL peptide with 200 ng/mL PAM3CSK4, 18 hours, compared to +PAM3
Method: Compounds 132, 133, 135, 150, 152, 157-161, 265-269, 275, 277, and 278 were evaluated for their ability to inhibit inflammation. To determine the effect of the peptides on inflammation, commercially available murine RAW 264.7 macrophages carrying a secreted embryonic alkaline phosphatase (SEAP) reporter that is inducible by NF-κB (RAW-Blue; InvivoGen, San Diego, Calif., USA) were used. Cells were grown to 80% confluence in DMEM containing 4.5 g/L glucose, 10% heat-inactivated fetal bovine serum, 2 mM L-glutamine, 50 μg/mL penicillin/streptomycin, 100 μg/mL Normocin (InvivoGen) at 37° C. in 5% CO2. For peptide screening experiments, cells were scraped in growth medium, counted, and plated to flat-bottom 96-well plates at a density of 5×10^4 cells/well either in the presence or absence (control) of 200 ng/mL TLR1/TLR2 agonist PAM3CSK4 (InvivoGen). Peptides were added in 6 replicate wells at a dose of 10 ng/mL in the presence of PAM3CSK4. After 18 hours of stimulation, SEAP concentrations (indicating NF-κB activity) were measured in the supernatants collected from the RAW-Blue cells using QUANTI-BLUE reagent (InvivoGen). After 20 minutes of incubation at 37° C., SEAP levels were determined using spectrophotometry at a wavelength of 630 nm.
Values are the mean and SDM of n=3 replicates. *p<0.05 and ***p<0.001 compared to +PAM3. In FIGS. 44 and 45, where bars are labeled with two compound numbers (“133/150” and “135/152”) this means that the data were pooled for the indicated compounds, i.e., for the non-acetylated and acetylated versions of the indicated peptides.

[2] = Circular dichroism (CD) spectroscopy of linear and stapled peptides in water or 40% TFE/water (Example 3); type: physicochemical; details: for [0]208 mean residue ellipticity: λ = 208 nm; for [0]222 mean residue ellipticity: λ = 222 nm
In short: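 Spectra 180–260 nm at 20 °C, 0.5 mM N-acetylated, C-amidated peptides in 0.1M phosphate buffer (water) or 40% TFE/water, 1 mm path, five scans averaged, buffer baseline subtracted. Mean residue ellipticity reported at 222 and 208 nm with the 222/208 ratio as helicity index.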

[3] = [θ]222/[θ]208 ratio in water, summary tables 15, 17, 19
[4] = as repeated in tables 16, 18, 20

| Substance | Inflammation (% Inhib.) [1] [% Inhib.] | [θ]222/[θ]208 ratio of ellipticities [2, 3] | [θ]222/[θ]208 ratio of ellipticities [2, 4] | [0]222/[0]208 ratio of ellipticities ([2]; in 40% TFE/water) | [0]222/[0]208 ratio of ellipticities ([2]; in water) | alpha-helical character by CD (in words) ([2]; in water) | [0]208 mean residue ellipticity ([2]; in 40% TFE/water) [deg cm^2 dmol^−1] | [0]208 mean residue ellipticity ([2]; in water) [deg cm^2 dmol^−1] | [0]222 mean residue ellipticity ([2]; in 40% TFE/water) [deg cm^2 dmol^−1] | [0]222 mean residue ellipticity ([2]; in water) [deg cm^2 dmol^−1] | [0]208 mean residue ellipticity at λ=208 nm ([2]; 40% TFE/water) | [0]222/[0]208 ratio of ellipticities ([2]; 40% TFE/water) | [0]222 mean residue ellipticity at λ=222 nm ([2]; 40% TFE/water) [deg cm^2 dmol^−1] | [0]208 mean residue ellipticity at λ=208 nm ([2]; water) [deg cm^2 dmol^−1] | [0]222/[0]208 ratio of ellipticities ([2]; water) | [0]222 mean residue ellipticity at λ=222 nm ([2]; water) [deg cm^2 dmol^−1] | inhibition of inflammation (SEAP / NF-κB activity, in words) [1] |
| --- | --- | --- | --- | --- | --- | --- | --- | --- | --- | --- | --- | --- | --- | --- | --- | --- | --- |
| Ac-(cyclo-4,8)-NLK[EKIKK]VVKLKDE-NH2 (Ac-NLKEKIKKVVKLKDE-NH2; lactam 4-8; SMILES CC[C@H](C)[C@@H]1NC(=O)[C@H](CCCCN)NC(=O)[C@@H](NC(=O)[C@H](CCCCN)NC(=O)[C@H](CC(C)C)NC(=O)[C@H](CC(N)=O)NC(C)=O)CCC(=O)NCCCC[C@@H](C(=O)N[C@H](C(=O)N[C@H](C(=O)N[C@@H](CCCCN)C(=O)N[C@@H](CC(C)C)C(=O)N[C@@H](CCCCN)C(=O)N[C@@H](CC(=O)O)C(=O)N[C@@H](CCC(=O)O)C(N)=O)C(C)C)C(C)C)NC(=O)[C@H](CCCCN)NC1=O) [Compound 157] | 0 | 0.38 | 0.38 | 0.80 | 0.38 | decreased helicity | -1.56E+04 | -6.40E+03 | -1.25E+04 | -2.46E+03 | – | – | – | – | – | – | – |
| Ac-(cyclo-10-14, cyclo-15-19)-KIKHVVKLK[KENSE][EKSEK]SKLRSQLVKRK-NH2 [Compound 269] | 0 | 0.44 | 0.44 | – | – | – | – | – | – | – | -2.65E04 deg cm^2 dmol^−1 | 0.81 | -2.14E04 | -9.04E+03 | 0.44 | -3.99E+03 | – |
| Ac-(cyclo-10-14, cyclo-15-19)-KIKHVVKLK[EENSK][KKSEE]SKLRSQLVKRK-NH2 (Ac-KIKHVVKLKEENSKKKSEESKLRSQLVKRK-NH2; lactam 10-14, 15-19; SMILES CC[C@H](C)[C@H](NC(=O)[C@H](CCCCN)NC(C)=O)C(=O)N[C@@H](CCCCN)C(=O)N[C@@H](Cc1c[nH]cn1)C(=O)N[C@H](C(=O)N[C@H](C(=O)N[C@@H](CCCCN)C(=O)N[C@@H](CC(C)C)C(=O)N[C@@H](CCCCN)C(=O)N[C@H]1CCC(=O)NCCCC[C@@H](C(=O)N[C@H]2CCCCNC(=O)CC[C@@H](C(=O)N[C@@H](CO)C(=O)N[C@@H](CCCCN)C(=O)N[C@@H](CC(C)C)C(=O)N[C@@H](CCCNC(=N)N)C(=O)N[C@@H](CO)C(=O)N[C@@H](CCC(N)=O)C(=O)N[C@@H](CC(C)C)C(=O)N[C@H](C(=O)N[C@@H](CCCCN)C(=O)N[C@@H](CCCNC(=N)N)C(=O)N[C@@H](CCCCN)C(N)=O)C(C)C)NC(=O)[C@H](CCC(=O)O)NC(=O)[C@H](CO)NC(=O)[C@H](CCCCN)NC2=O)NC(=O)[C@H](CO)NC(=O)[C@H](CC(N)=O)NC(=O)[C@H](CCC(=O)O)NC1=O)C(C)C)C(C)C) [Compound 268] | 0 | 0.40 | 0.40 | – | – | – | – | – | – | – | -.304E04 deg cm^2 dmol^−1 | 0.83 | -2.54E04 | -6.74E+03 | 0.40 | -2.71E+03 | – |
| Ac-(cyclo-7-11, cyclo-28-32)-NLKQKI[EHVVK]LKDENSQLKSEVSKLR[EQLVK]RKQN-NH2 (Ac-NLKQKIEHVVKLKDENSQLKSEVSKLREQLVKRKQN-NH2; lactam 7-11, 28-32; SMILES CC[C@H](C)[C@H](NC(=O)[C@H](CCCCN)NC(=O)[C@H](CCC(N)=O)NC(=O)[C@H](CCCCN)NC(=O)[C@H](CC(C)C)NC(=O)[C@H](CC(N)=O)NC(C)=O)C(=O)N[C@H]1CCC(=O)NCCCC[C@@H](C(=O)N[C@@H](CC(C)C)C(=O)N[C@@H](CCCCN)C(=O)N[C@@H](CC(=O)O)C(=O)N[C@@H](CCC(=O)O)C(=O)N[C@@H](CC(N)=O)C(=O)N[C@@H](CO)C(=O)N[C@@H](CCC(N)=O)C(=O)N[C@@H](CC(C)C)C(=O)N[C@@H](CCCCN)C(=O)N[C@@H](CO)C(=O)N[C@@H](CCC(=O)O)C(=O)N[C@H](C(=O)N[C@@H](CO)C(=O)N[C@@H](CCCCN)C(=O)N[C@@H](CC(C)C)C(=O)N[C@@H](CCCNC(=N)N)C(=O)N[C@H]2CCC(=O)NCCCC[C@@H](C(=O)N[C@@H](CCCNC(=N)N)C(=O)N[C@@H](CCCCN)C(=O)N[C@@H](CCC(N)=O)C(=O)N[C@@H](CC(N)=O)C(N)=O)NC(=O)[C@H](C(C)C)NC(=O)[C@H](CC(C)C)NC(=O)[C@H](CCC(N)=O)NC2=O)C(C)C)NC(=O)[C@H](C(C)C)NC(=O)[C@H](C(C)C)NC(=O)[C@H](Cc2c[nH]cn2)NC1=O) [Compound 278] | 0 | 0.74 | 0.74 | – | 0.74 | greatest alpha-helical character | – | – | – | – | -2.44E04 deg cm^2 dmol^−1 | 0.86 | -2.12E04 | -1.33E+04 | 0.74 | -9.95E+03 | – |
| Ac-(cyclo-28-32)-NLKQKIKHVVKLKDENSQLKSEVSKLR[EQLVK]RKQN-NH2 (Ac-NLKQKIKHVVKLKDENSQLKSEVSKLREQLVKRKQN-NH2; lactam 28-32; SMILES CC[C@H](C)[C@H](NC(=O)[C@H](CCCCN)NC(=O)[C@H](CCC(N)=O)NC(=O)[C@H](CCCCN)NC(=O)[C@H](CC(C)C)NC(=O)[C@H](CC(N)=O)NC(C)=O)C(=O)N[C@@H](CCCCN)C(=O)N[C@@H](Cc1c[nH]cn1)C(=O)N[C@H](C(=O)N[C@H](C(=O)N[C@@H](CCCCN)C(=O)N[C@@H](CC(C)C)C(=O)N[C@@H](CCCCN)C(=O)N[C@@H](CC(=O)O)C(=O)N[C@@H](CCC(=O)O)C(=O)N[C@@H](CC(N)=O)C(=O)N[C@@H](CO)C(=O)N[C@@H](CCC(N)=O)C(=O)N[C@@H](CC(C)C)C(=O)N[C@@H](CCCCN)C(=O)N[C@@H](CO)C(=O)N[C@@H](CCC(=O)O)C(=O)N[C@H](C(=O)N[C@@H](CO)C(=O)N[C@@H](CCCCN)C(=O)N[C@@H](CC(C)C)C(=O)N[C@@H](CCCNC(=N)N)C(=O)N[C@H]1CCC(=O)NCCCC[C@@H](C(=O)N[C@@H](CCCNC(=N)N)C(=O)N[C@@H](CCCCN)C(=O)N[C@@H](CCC(N)=O)C(=O)N[C@@H](CC(N)=O)C(N)=O)NC(=O)[C@H](C(C)C)NC(=O)[C@H](CC(C)C)NC(=O)[C@H](CCC(N)=O)NC1=O)C(C)C)C(C)C)C(C)C) [Compound 277] | 8 | 0.64 | 0.64 | – | – | – | – | – | – | – | -3.10E04 deg cm^2 dmol^−1 | 0.85 | -2.65E04 | -1.46E+04 | 0.64 | -9.36E+03 | significantly inhibited inflammation |
| Ac-KIKHVVKLKDENSQLKSEVSKLRSQLVKRK-NH2 [Compound 265] | 18 | 0.40 | 0.40 | – | – | – | – | – | – | – | -2.72E04 deg cm^2 dmol^−1 | 0.80 | -2.18E04 | -2.73E+04 | 0.40 | -1.09E+04 | significantly inhibited inflammation |
